Each block holds one binder with its values, some of them ahead of it.
Experiments:
[1] = biological target: T1, human CNTF receptor alpha component on MG87/CNTFR fibroblasts (human, UniProt P26992 23-342); assay: displacement of 125I-rat CNTF from MG87/CNTFR cells (human CNTF receptor)
T1 construct: whole, on cells; Mouse fibroblast line transfected with the human CNTFalpha receptor gene; also called CNTFRalpha; MG87/huCNTFR
T1 sequence (looked up): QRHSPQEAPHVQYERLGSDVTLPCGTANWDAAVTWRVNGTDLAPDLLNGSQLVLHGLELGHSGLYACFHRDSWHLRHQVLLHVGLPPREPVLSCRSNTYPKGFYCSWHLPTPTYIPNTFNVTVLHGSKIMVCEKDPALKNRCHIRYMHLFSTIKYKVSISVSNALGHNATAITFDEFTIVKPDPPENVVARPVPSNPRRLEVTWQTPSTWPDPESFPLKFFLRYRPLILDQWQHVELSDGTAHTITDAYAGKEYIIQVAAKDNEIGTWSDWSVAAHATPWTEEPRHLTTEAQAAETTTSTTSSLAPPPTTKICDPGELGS
Procedure: MG87/CNTFR is a fibroblast cell line transfected with the human CNTFα receptor gene (Squinto, et al., 1990, Neuron 5:757–766; Davis et al., 1991, Science 253:59–63). Binding Assays Binding was performed directly on cell monolayers. Cells in culture wells were washed once with assay buffer consisting of phosphate buffered saline (PBS; pH 7.4), 0.1 mM bacitracin, 1 mM PMSF, 1 µg/ml leupeptin, and 1 mg/ml BSA. […] Non-specific binding was determined in the presence of 1,000-fold excess of unlabelled CNTF. Specific binding towards MG87/CNTFR was 80–90%. Data were analyzed using the […] program (ISI, Philadelphia, Pa.).

[2] = biological target: T2, rat CNTF receptor on rat superior cervical ganglia (SCG) neurons (rat, UniProt Q08406 23-342); assay: displacement of 125I-rat CNTF from rat SCG neuron monolayers
T2 construct: whole, on cells; also called rat receptor; SCGs
T2 sequence (looked up): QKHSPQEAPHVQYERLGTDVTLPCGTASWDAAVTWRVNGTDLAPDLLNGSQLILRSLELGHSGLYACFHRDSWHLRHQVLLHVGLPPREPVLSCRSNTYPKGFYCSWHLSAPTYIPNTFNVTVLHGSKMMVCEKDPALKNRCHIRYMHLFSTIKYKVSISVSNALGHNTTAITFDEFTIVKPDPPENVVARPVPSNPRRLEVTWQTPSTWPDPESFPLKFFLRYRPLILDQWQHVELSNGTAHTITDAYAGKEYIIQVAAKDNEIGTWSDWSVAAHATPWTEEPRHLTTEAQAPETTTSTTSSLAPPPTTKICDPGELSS

IC50 [1]: 2.8 nM
IC50 [2]: 0.28 nM
B1: recombinant rat CNTF (ciliary neurotrophic factor) (ligand)
chain: AFAEQTPLTLHRRDLCSRSIWLARKIRSDLTALMESYVKHQGLNKNINLDSVDGVPVASTDRWSEMTEAERLQENLQAYRTFQGMLTKLLEDQRVHFTPTEGDFHQAIHTLMLQVDAFAYQLEELMVLLEQKIPENEADGMPATVGDGGLFEKKLWGLKVLQELSQWTVRSIHDLRVISSHQMGISALESHYGAKDKQM
notes: also called unlabelled rat CNTF

IC50 [1]: 30 nM
fold less potent than rat CNTF [1]: 12 fold
IC50 [2]: 25 nM
fold less potent than unlabelled rat CNTF in displacing 125I-rat CNTF [2]: 90 fold
B2: recombinant human CNTF (ciliary neurotrophic factor) (ligand)
chain: AFTEHSPLTPHRRDLCSRSIWLARKIRSDLTALTESYVKHQGLNKNINLDSADGMPVASTDQWSELTEAERLQENLQAYRTFHVLLARLLEDQQVHFTPTEGDFHQAIHTLLLQVAAFAYQIEELMILLEYKIPRNEADGMPINVGDGGLFEKKLWGLKVLQELSQWTVRSIHDLRFISSHQTGIPARGSHYIANNKKM
notes: Position numbers (C17, Q63) count the methionine as 1; also called rHCNTF; hCNTF

Reference: US6440702
